Source: publication PMC10734219, “Characterization of the Membrane-Associated Electron-Bifurcating Flavoenzyme EtfABCX from the Hyperthermophilic Bacterium Thermotoga maritima” (Biochemistry, 2023)
“And” between values parts separate entries of the source, which are not always exact repeats. Identical values can stand only once.

Target: the molecule itself
Assay: SEC; purified recombinant EtfABCX analysed by size exclusion chromatography; peaks assigned by mass; EtfABCX protomers to superdimer and super-tetramer

B1: Thermotoga maritima EtfABCX holoenzyme (heterotetrameric protomer) (complex)
chain 1: MNVVVCIKQVPDTTNVRIDRKTNNLVREGVPSIINPDDERALELASQLKEKFGATVYVITMGPPQAKEALKDAIAFGLDEAVHLSDRTFAGADTLATTYTLYWGIKKIEERIGKIDLILTGKQAVDGDTGQVGPGLATRFGYALGAYVVRIEEIDPEKKEMVIVRRLDQGFEKIRLKLPAVLTITDELNKPRYADLPNLIRAIRYEPIVWTHKDLGLDPKKCGFFGSPTRVVSTNIPPARKGGDIISKNEDPEVAAEKLIEALKKFEAVRLVEALKPVLEGEKDE
chain 2: MSEKKIIFVLIEHHGGKAHPVSWELIGKARDLASKLENSEVWGVLLGEGLESVAKEAIQRGADKVLYVKNREFNTYVNYLYKKALVDMVRKYRPEIFLIGATLEGRELAGMVATELETGLTADCTGLDIIPDKKLLAMTRPTFGGNLMATIMCPDHRPQMATVRPGVMKELPPDPERTGEIIEEEYDLGTFDKLIEILETIPLQTQVNLEYAPVVVAGGKGVGGPEGFKKLKELADLLGGEVGASRAAVKAGWISPEHQVGQTGKTVRPVLYFACGISGAIQHVVGIKESEIIVAINIDEKAPIFDIADIGIVGDLHKVVPALTAKLRELLNKSGVKK
chain 3: MKIEFDVVVVGAGPSGLSCAYVLAKNGLKVAVVEKGEYPGSKNVMGGVLYVHPLKEIMPDFLEKAANSKALERNVIEQNLWLLGNEGVIKIGHRNVEWKENPNAFTVLRANFDRWFAQEVEKAGALIIPKTKVEDFLRNEKGEIAGVVTSRPKGEIHSKAVVIAEGVNPILTMKAGLRKEDLKPHMVAVAVKEVISVPEDVVNRVFGVEGNDGATIELLGSWSEGMFGMGFLYANRSSVSLGCGVLLEDLRKKKIKPYQLLENLKNHPVISDMLGEYRNNTMEYLAHLIPEGGYYAMPKVYGDRVLVCGDAAMLVNSIHREGSNHAITSGRLAAETLLEAFEKGDFSEKILKNYYLRLKESFILKDLEKYKDLMPTMEKNHQFVEIYPDLANDALKRFLQVDGTPKWDVQKQIADMVLSRRSLIGISLDLLRFWRAVR
chain 4: MRIEDKLYLNRYRTDEENPHLKIKDESICAEKCSDRPCVSCCPADVYEWTESGMEVKFEGCLECGTCRIVCPFGNIEWNYPRGNYGVLYKFG
With B1 the “stoichiometry N” value was 2 and 4.
